Laboratory results taken from the nanobody polyreactivity screen of Harvey et al. (2022).

Assay: yeast display, Sf9 membrane polyspecificity reagent, FACS + sequencing; frameworks hold sequencing errors
Procedure, shortened: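 Nanobodies came from a synthetic yeast display library in Saccharomyces cerevisiae BJ5465, induced with galactose for 36–48 hours and stained for 1 hour at 4 °C with 10% biotinylated, detergent-solubilized Sf9 membrane reagent. Cells were enriched on streptavidin microbeads and then FACS-sorted, with low and high (top ~1%) gates set on anti-HA fluorescence for expression and streptavidin fluorescence for reagent binding. Each polyreactivity label reflects the gate a clone came from. Genes were amplified by colony PCR, sequenced by MiSeq 2 × 250 and filtered by CDR length.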

Sequence | polyreactivity (PSR sort gate)
QVQLVESGGGLVQAGGSHRLSCAASGFTFYRYAMGSYRQAPGKERELVAAITGGGSTYYADSVKGRFTISRDNAKNTVYLQMNSLKPVDTAVYYCNAYHIVIYDYWGQGTQVTVSS | low polyreactivity
QVQLVESGGGLVQAGGSLRLSCAASGRTFRAYVMGWYRQAPGKERELVAAFTGDGGSTYYADSVKGRFTISRDNAKNTVYLQMNSLKPEDTAVYYCAAGYVTVYGYYEYWGQGTQVTVSS | high polyreactivity
QVQLVESGGGLVQAGGSLRLSCAASGRIFDYYAMGWYRQAPGKERELVASISRSGGSTYYADSVKGRFTISRDNAKNTVYLQMNSLKPEDTAVYYCAAVRYITKEFYWGQGTQVTVSS | high polyreactivity
QVQLVESGGGLVQAGGSLRLSCAAAGRTFYNYAMGWYRQAPGKERELVAAIDWGSDSTYYADSVKGRFTISRDNAKNTVYLQMNSLKPEDTAVYYCAKRPKNKPVLGDYDHWGQGTQVTVSS | low polyreactivity
QVQLGESGGGIVQAGGSLRLSCAASGRTFPYNVMGWYRQAPGKERELVAGITGSGDSTFYADSVKGRFTISRDHAKNTVYLQMNSLKPEDTAVYYCAARYRTLNDGYIRNYWGQGTQVTVSS | low polyreactivity
QVQLVESGGGLVQAGGSLRLSCAASGSIFGYYALGWYRQAPGKERELVAAISRSGGSTYYADSVKGRFTISRDNAKNTVYLQMNSLKPEDTAVYYCAADDYPYGNYYWGQGTQVTVSS | high polyreactivity
QVQLVESGGGLVQAGGSLRLSCAASGSSFVSYTMGWYRQAPGKERELVAAISYNGARTYYADSVKGRFTISRDNAKNTVYLQMNSLKPEDTAVYYCARRYYSQYDYWGQGTQVTVSS | high polyreactivity
QVQLVESGGGLVQAGGSLRLSCAASGRIFTPNAMGWYRQAPGKERELVAAISRSGGSTYYADSVKGRFTISRDTAKNTVYLQMKSLKPEDTAVDYCNKLRTPSSGLDYWGQGTQVTVSS | high polyreactivity
QVQLVESGGGLVQAGGSLLLSCSASGRIFGVNAMGGYRQAPGKERELVAAISAGGGNTYYADSVKGRFTISRDNAKNTVYLQMNSLKPEDTAVYYCNVQRSLRMDYWGQGTQVTVSS | high polyreactivity
QVQLVESGGGLVQAGGSLRLSCAASGSTFSVYAMGWYRQAPGKERELVATISWGGGITYYADSVKGRFTISRDNAKNTVYLQMNSLKPEDTAVYYCAKELYSWLPGYRCEGTMDYWGQGTQVTVSS | high polyreactivity
QVQLVESGGGLVQAGGSLRLSCAASGRTFSGYAMGWYRQAPGKERELVAVITYSGGSTYYADSVKGRFTISRDNAKNTVYLQMNSLKPEDTAVYYCNADYVIFYQLVEYDYWGQGTQVTVSS | low polyreactivity
QAQLQESAGSLVQAGGGLRLSCAASGYISVGSVKGWYRQAPSKERELVASIDQGANTNYADSVKGRFTISRDNAKNNVYLQMNSLIPEDTAVYYCATETTYILNYWGQGTQVTVSS | low polyreactivity
QVQLVESGGGLVQAGGSLRLSCAASGFTFTYYAMGWYRQAPGKERELVAAISASGDSTYYADSVKGRFTISRDNAKNTVYLQMNILKPEDTAVYYCAALYWYSRSSWDYDYWGQGTQVTVSS | high polyreactivity
QLQLVESGGGLVQAGGSLRLSCAASGSTFVLYAKGWYRQAPGKERELVAAITWSGDDTYYADSVKGRFTISRDNEKNTVYLQMTSLKPEDTAVYSCAADGRGDLYVWPGIGGDYWGQGTQVTVSS | low polyreactivity
LVQLVESGGGLVQAGGSLRLSCAASGFISPSYALGWYRQAPGKERELVAAIRSSDGSTYYADSVKGRFTISRDNAKNTAYVQMNSRKPEDTAVYYCAAGGSSYRDDYWGQGSQVTVSS | low polyreactivity
QVQLVESGGGLVQAVGSLRLSCAASGRTFDFYAMGWYREAPGKEREFVAAISSRGGSTYYADTVKGRFTISRDNAKNTVYLQMNSLKPEDTAVYYCAKDLGYRGRYNYWGQGTQVTVSS | low polyreactivity
QVQLVESGGGLVQAGGSLRLSCAASGSIFYGNAMGWYRQAPGKERELVASITYSGGTTNYADSVKGRFTISRDNAKNTVYLQMNSLKPEDTAVYYCNADIYPDRYGSTNYDFNYWGQGTQVTVSS | low polyreactivity
QVQLVESGGGLVQAGGSLRLSCAASGRIFFWYAMGWYRQAPGKERELVAGITSGGSTNYADSVKGRFTISRDNAKNTVYLQMNSLKPEDTAVYYCNTVDSIPIGSGLYYYWGQGTQVTVSS | low polyreactivity
QVQLVESGGGLVQAGGSLRLSCAASGSIFDYTAMGWYRQAPGKERELVASIRWSGGRTYYADSVKGRFTISRDNAKNTVYLQMNSLKPEDTAVYYCNRKPQEYVLQGSSNGYDYWGQGTQVTVSS | low polyreactivity
QVQLVESGGGLVQAGGSLRLSCAASGSIFYRYAMGWYRQAPGKERELVAAISSTGSTYYADSVKGRFTISRDNAKNTVYLQMNSLKPEDTAVYYCAARQGFRSYRRYDYWGQGTQVTVSS | high polyreactivity
QVQLVESGGGLVQAGGSLRLSCAASGSIFGYNAKGWYRQAPGKERELVAAINYRGGSTYYADSVKGRFTISRDNAKNTVYLQMNSLKPEDTAVYYCAARYWKDGSTYDYWGQGTQVTVSS | high polyreactivity
QVQLVESGGGLVQAGGSLRLSCAASGSIFAYYVMGWYRPAPGKERELVAAITRAGSTYYADSVKGRFTISRDNGKNTVYLQMNSLKPEVSAVYYCDARVGYYFRPESYYWGQGTKVTVSS | high polyreactivity

Sequence | polyreactivity (PSR sort gate)
QVQLVESGGGLVQAGGSLRLSCAASGITLEDYDMGWYRQAPGKERELVAAITSGGSTNYADSVKGRFTISRDNAKNTVYLQMNSMKPEDTAVYYCNADFAIRWWYYFGSGYDYWGQGTQVTVSS | low polyreactivity
QVQLVESGGGLVQAGGSLRLSCAASGSTFSYNAMGWYRQAPGKERELVAAIDRSVSTNYADSVKGRFTISRDNAKNTVYLQMNSLKTEDTAVYYCNARHPTDDIVIYDYWGQGTQVTVSS | low polyreactivity
QVQLVESGGGLVQAGGSLRLSCAASGFIFSSYAMGWYRQAPGKESELVAAITSGGSTNYADSVKGRFTISRDNAKNTVYLQMNSLKPEDTADYYCATLPGGSWFFHWWSTGGDDEYWGQGTQVTVSS | low polyreactivity
PVQLVEAGGGLVQAGGSLRLSCAASGFTIRIYTMGWYRQAPGKERELVAAISSRGGSTYYADSVKGRFTISRDNAKITVYLQMNSLKPEDTAVYYCAKTPYYRYAKQRYTSSHDYWGQGTQVTVSS | high polyreactivity
QVQLVESGGGLVQAGGSLRLSCAASGRIFHSYTIGWYRPAPGNERELVAAINWSGTRTYYADSVKGRFTISRDNAKNTVYLQMNSLKPEDTAVYYCNRVGVTRSYRYDYWGQGTQVTVSS | high polyreactivity
QVQLVESGGGLVQAGGSLRLSCAASGSTSLKNAMGWYRQAPGKERELVAAINSVGDTYYADSVKGRFTISRDNAKNTVYLQMNSLKPEDTAVYYCAKRVVRYGKRMGYWGQGTQVTVSS | high polyreactivity
QVQLVESGRGLVQAGGSLRLSCAASGRIYRRNAIGWYRQAPGKERELVAAITWSDGSTYYADSVKGRFTISRDNAKNTVYFQMNSLKPEDTAVYYCNKVTRSPSEYDYWGQGTQVTVSS | high polyreactivity
QVQLADSGGGLVQAGGSLRLICAASGSIIRNKAMGWYRQAPGKERELVAAITSTGTGTYYADSVKGRFTISRDYAKNTVYLQMNRVKPEDPAVYYCAVDDEFEFGYWGQGTQVTVSS | low polyreactivity
QVQLVESGGGLVQAGGSLRLSCAASGSSFGGYAMGWYRQAPGKERELVARITDRGGSTDYADSVKGRFTISRDNAKNTVYLQKNSLKPEDTAGSYCAKRGDRYEKRPRDYWGQGTQVTVSS | low polyreactivity
QVQLVESGGGLVQAGGSLRLSCAASGRTFRLYAMGWYRQAPGKERELVAAITRGGRTNYADSVKGRFTISRDNAKNTVYLQMYSLKPEDTAVYYCARDFVAYGDDYWGQGTQVTVSS | low polyreactivity
QVQLVESGGGLVQAGGSLRLSCAASGSIFYYNAMGWYRQAPGKERELVAAISQRGTRTYYADSVKGRFTISRDNAKNTVYLQMNSLKPEVTAVYYCAAESSSYYGYYIYYYWGQGTQVTVSS | high polyreactivity
QVQLVESGGGLVQAGGSLRLSCAASGSIFIYNAMGWYRQGPGKERELVAAISSSGGSTYYADSVKGRFTISRDNAKNTVYLQMNSLNPEDTAVYYCAARTYYVRGLGGRPGMDYWGPGTQVTVSS | low polyreactivity
QVQLVESGGGLVQAGGSLRLRCAASGRTFARYAMGWYRQAPGKERELVAAISWSGGSTYYADSVKARFTISRDNAKNTVYLQMNSLKPVDTAVYYCAARRPTSPRRYESWGQGTQVTVSS | high polyreactivity
QVQLVESGGGLVQAGGSLRLSCAASGFIFRYYAMGWYRQAPGKERELVAAISRGGSTNYADSVKGRFTISRDNAKNTVYLQMNSLKPEDTAVYYCAARTVRARSKFEYWGQGTQVTVSS | high polyreactivity
QVQLVESGGGLVQAGGSLRLSCAASGSTFPYYTMGGYRQAPGKERELVAAISWRGGSTYYADTVKGRFSISRDNAKNTVYLQMNSLKPEDTAVYYCAARYGVFGYDYWGQGTQVTVSS | high polyreactivity
QVQLVESGGGLVQAGGSLRLSCAASGSMFYYYAMGWYRQPPGKERELVAAISSGGVGSTTYADSVKGRFTISRDNAKNTVYLQMNSLKPEDTAVYYCNADRPGYFYFYFNYWGQGTQVTVSS | high polyreactivity
QVQLVESGGGLVQAGGSLRLICAASGSIFRLYAMGWYRPAPGKEREFVARIRWRGGSTNYADSVKGRFTISRDNAKNTVYLQMNCLKPVDTAVYYCAAKQGTVRAHTYVAWYDYWGQGTQVTVSS | high polyreactivity
QVQLVESGGGLVQAGGSLRLSCAASGSIFFPYVMGWYRQAPGKERELVAAITYRAGSTYYADSVKGRFTISRDNAKNTVYLQMNSLKPEDTAVYYCAAVVSRSGEFGYWGQGTQVTVSS | low polyreactivity
QVQLVESGGGLVQAGGSLRLSCAPSGFTFRGNAMGWYRQAPGKERELVATISRGGNTNYADSVKGRCTISRDNAKNTVYLQMNSLKPEDTAVYYCAAVSFIRSKVAYNYWGQGTQVTVSS | low polyreactivity
QVPLVESGGGLVEAGGSLRLSCDASGGIFRGYAKGWYRQAPGKERDLVAAISRGGGSTYYADSVKGRFTISRDNAKNTVYLQLNSLKPEDTAVYYCAAIYTRVYDPVTEFYYWGQGTQVTVSS | high polyreactivity
QVQLEESGGGLVQAGGSIRLSCAASGSIFYKYVMGCYRQAPGKERELVAAISRGGGSTYYADSVKGRFTISRDNSKNTVYLQMNSLKPEDTAVYYCNAVVRPRYGHGFDHWGQGTQVTVSS | high polyreactivity
